Reference: PMC9629515
Like-named read-outs stand apart in the source and are kept apart here.

Legend:
[1] = target: cytosolic domain of Photorhabdus luminescens LscV (LscVC; residues 357–705) (Photorhabdus luminescens (Table 1: Photorhabdus laumondii TT01)); assay: crystal structure
[2] = target: cytosolic domain of Photorhabdus luminescens LscV (LscVC; residues 357–705) (Photorhabdus luminescens (Table 1: Photorhabdus laumondii TT01)); assay: crystal structure; remark: listed apart in the source
[3] = target: cytosolic domain of Aeromonas hydrophila AscV (AscVC; residues 375–721) (Aeromonas hydrophila AH3)

Substance: cytosolic domain of Photorhabdus luminescens LscV (LscVC; residues 357–705) (domain or fragment)
- stoichiometry N [1]: 9
- stoichiometry N [2]: 8

Substance: cytosolic domain of Aeromonas hydrophila AscV (AscVC; residues 375–721) (domain or fragment)
- stoichiometry N [3]: 10
